In the DeepSol protein solubility set:

assay: soluble on expression in E. coli; label from the status in PepcDB or PDB records

Sequence	soluble on expression in E. coli
MGSDKIHHHHHHMGNILWVASYPKSGNTWVRAFLENYIQNQAQPIDINTMHTISTAESAAHRYQHYLPKDKTATTELTLEEVSVLRPQVQADIAHQANGTTFVKTHNYLGEYNGHPLHNSSVTSGAIYVVRNPLDVAISMANYFGYSIDEAIAYMAEEMTGTPNEAPHVPQIITSWSMHVSSWTADDASKLILRYEDMLDDPKKVFRKVESFLGLKKDPVRLKNAIKHSSFAQLKAQETKLGFVEKHENANAFFRNGGKHQWKTKLTPEQVQKIVATHYEQMKRFKYLPAGM	not soluble
MGSDKIHHHHHHMKSNTTMSKTERLFHLLQILRRYRYPLSGQFLANELGVSTRTIYRDIAALQAQGADIEGEPGLGYVLKPGFMLPPLMFNEEEIEALVLGSRWVAKKTDTHLQQAAHNALAKIASVLPADLRQQLELSSLLIGPGEVISGEDESLALVRKAIRKELKLFIQYHDLKGNVSTRTIWPIGLGYFDQVRVLIAWCELKKDFRHFRADRIVDVENLGVCYAKRRSVLLHDWRKQNNIPG	not soluble
MGSDKIHHHHHHMTTLGIDHPLVCVRDLAAKRATYQSLGFLMKPPGMHPWGTSTALVIFRNQLLELVSIEDESLLDGYAAGSFRFGRHVEAWLAEREGVCLSALNSMDAEADEAAVLARGGSCAGTVEFGRDVVRDDGTPDRTKTTLKIFPHAGLPRLSMFACQQHRRDLIEFPDWMDHPNGAHGFASATILAAPSDQGRVRDWLSVLHGADAVRDTDWGFEVATTNGRWRVVSRATAPALLGKLPDGLASDGAPSVISLDIRCHALSQLRPFVEAGEFVCQDVNGALVLTEVARLGGILLSFHEIPKV	not soluble
MSLDLSASRSDGGDPLRPASPRLRSPVSDGGDPLRPASPRLRSPVSDGGDPLRPASPRLRSPLGASRPVVGLTAYLEQVRTGVWDIPAGYLPADYFEGITMAGGVAVLLPPQPVDPESVGCVLDSLHALVITGGYDLDPAAYGQEPHPATDHPRPGRDAWEFALLRGALQRGMPVLGICRGTQVLNVALGGTLHQHLPDILGHSGHRAGNGVFTRLPVHTASGTRLAELIGESADVPCYHHQAIDQVGEGLVVSAVDVDGVIEALELPGDTFVLAVQWHPEKSLDDLRLFKALVDAASGYAGRQSQAEPREGGSHHHHHH	soluble
MGSDKIHHHHHHMNRLIRTGVLGFLVWLAGCGHAPVQEKPTPEELKQRALQSAKIHTELAGQYYHRGQYRVAIEEAEIALQKKTDYAPAYNMLGLVYMDLQEDDRAEWNFERGLGITPNDPDIRNNFGWFLCQRKPDGIEQAIGHFMAAVRDPLYETPERTYTNAGLCVLKQNDFERAQSYFQEALVIRPGYPLARLGLVELDFSRGEVKKAWAAINRYLQTYPPAPGSLWLAVRIARANGDVNAETNYAFQLQKRFPDSREARESRAGRLNHER	not soluble
SLTTVSVNESLLTPLNLEIDPNAQCVKQEEKEQIKSLNSRFAAFIDKVRFLEQQNKLLETKLQFYQNRECCQSNMEPLFEGYIETLRREAECVEADSGRLASELNHVQEVLEGYKKKYEEEVSLRATAENEFVALKKDVDCAYLRKSDLEANVEALIQEIDFLRRLYEEEIRILQSHISDTSVVVKLDNSRDLNMDCIIAEIKAQYDDIVTRSRAEAESWYRSKCEEMKATVIRHGETLRRTKEEINELNRMIQRLTAEVENAKCQNSKLEAAVAQSEQQGEAALSDARCKLAELEGALQKAKQDMACLIREYQEVMNSKLGLDIEIATYRRLLEGEEQRLCEGIGAVNVCVSSSRGGVVCGDLCVSGSRPVTGSVCSAPCNGNVAVSTGLCAPCGQLNTTCGGGSCGVGSCGISSLGVGSCGSSCRKC	soluble
MIFGRTERGKPPVEPVTLKILVAGGFGVGKTTLVGAVSEIRPLRTEEVLTEAGRPVDDISGVEGKHTTTVAMDFGRITLREDLVLYLFGTPGQDRFWFLWDELATGALGAVVLADTRRLEDCFAAVDYFERRSIPFVMGVNCFEEAARYPVEDVRRALDLDDDVPVVLCDARDRESVKEVLIDVVRHAMAHAAERRETVSGLEHHHHHH	not soluble
MSIKVDMSLDCKGLACPMPIVKTKKAIEGLASGQVIEVKATDKGSTVDIKSWANKVGHQYIGTKHEGDILMHYVRKAHEHEVNEVVKYPHTITNTELEEILVSGEECTVLDVREAAEFAFGHIPSATSMPLGELESLVLDKTKQIYVVCRTGNRSDVACQMLKEKGYTNVKNVIPGMIEWQGNIENLEHHHHHH	soluble
MGSDKIHHHHHHMVNKNLYTLLVCLLLAGCDLIDYHPYDVRISGETDVNAHNIEQIEAKCKGKTTIRFITMGDSQRWYDETEDFVKEVNKRDDIDFVIHGGDMSDFGLTKEFLWQRDIMNGLKVPYVVLIGNHDCLGTGAETYQAVFGPTNFSFIAGNVKFVCLNTNALEYDYSEPIPNFGFMEQELTDRADEFEKTVVSMHAHPFADVFNDNVAKPFQYYITQYPGLQFCTAAHNHGFDDRILFDDDVHYIVSDCMKSRSYLVFTITPEKYEYELVEY	not soluble
GSHMDLETLRARREAVLSLCARHGAVRVRVFGSVARGEAREDSDLDLLVAFEEGRTLLDHARLKLALEGLLGVRVDIVSERGLAPRLREQVLREAIPL	soluble
MSDENLETESTSKALEDILSYTDSPAFRHIFSFFLGRPRIRAKSTLNLDILSEEVVIRKGKLIHTWQNARAVFYNSNIRLQTKNNQDEALQIRNMKVDVHESKRGRALRLKDDDVCYLIIFQRPNILEAWLTRAQQVEKSNHVDASDEQLTLIPEQILNNEARVQILNLRRNSLISRPPTEKSMAPLGYIDDLYRVHSLQVIDLSANQILSFPIQLTLLSHLRQLNLSSNYISSVPSECSNMRRLQYLNLSNNQLDTLPDSISELQNLQSLDISFNQFSQIPPCLFHLTLEMWRLAGNNIEKIDRVGEMQIQKIDLRRNVLDTSFRLDIENITHLDLRDNSMISTVHLTNLRFLKVIHCERLQLSSLHLSGESLTHVYADHNLLDSLVVMPLPQNLQTLSLSFNHFRNLPDWISDCPNLTFLRANNNSLVALPERIFYSQSLRSIFAFINEIEHIPDFGEENCLETLILYKNKLSSLPKHFFSILPRLRQLNISSNFIELLPYFDGSSFCRLQILRCANNYLTENSVPVIVNMKHLKIIDLSHNRLNSFDDSALSSLELLEDLNLSSNRLTRLADCLALLPCLQVLRAHSNQLVHVPEFRASNQLHTIDVSSNNISLGTLQFKAPPNLRHFDVTCNSGDFDTENFPENAKMHSKMNTINISEGSQNLFGFQIGVSGSRGMKNKQCIRQVRVENTFGFIDGGSNSYMSSSICRFMTSYLKENVSMDIRSILLRCHCELGEEGERLGASVMIIRVHEKRLEIASTGTMSAAIARNQKLKMIINGRYEIDDDEYSRIREAHGFVDEENRINGVIGSSRQIGHFSTFPVVLPTHSYRNIQLNEQIEGLIVGNNMIWNMLSIDDLNSTFHNNRSPIVVAKKIQDQLQSYDYGGNSNILVLRRIKPQMTFNGFSTSSTKNQVTPDIAIPKIDEQLVLAVPALILPEYHPSPPVPPPIPAIRHRTPSPPPPPLPSSTPPPVSSEHEEINVRQSSTLSGGYTLSIDRFYSSSSTVSSRKQFNETRDLLSKSLKLSPPNTVTFNI	not soluble
MSLFKEERTMTNYTVDTLNLGKFITESGEVIDNLRLRYEHVGYHGQPLVVVCHALTGNHLTYGTDDYPGWWREIIDGGYIPIHDYQFLTFDVIGSPFGSSSPLNDPHFPKKLTLRDIVRANERGIQALGYDKINILIGGSLGGMQAMELLYNQQFEVDKAIILAATSRTSSYSRAFNEIARQAIHLGGKEGLSIARQLGFLTYRSSKSYDERFTPDEVVAYQQHQGNKFKEHFDLNCYLTLLDVLDSHNIDRGRTDVTHIFKNLETKVLTMGFIDDLLYPDDQVRALGERFKYHRHFFVPDNVGHDGFLLNFSTWAPNLYHFLNLKHFKRKEGHHHHHH	soluble
GSHMASADLVSSCKDKLAYFRIKELKDILNQLGLPKQGKKQDLIDRVLALLTDEQGQRHHGWGRKNSLTKEAVAKIVDDTYRKMQIQCAPDLATRSHSGSDFSFRPIEEA	soluble
MAHHHHHHMNKVVIISIFFFFFFQDHNNKSINSYNKINSSSTYTHSRILKQLEFITLEEKTVNALQEMLDSVEEDPSEKKCNRLLAKLKIRNEYHKHRKPHNYYARKNKKKEQKRQHLKKNKGKLNRLQQLEEKLFTHADLLRSAIFERTSRVPDGIFYT	not soluble
MISVVGAGGKTSLLFWLAELLQASGRRVLITTTTHMFMPTSHWPVVFCRDPAMLPHASLTSPISFCFHSWKANQGKVQGFTPEAIDALVQRPECDVILIEADGSRGMPLKAPDEHEPCIPKSSCCVIAVMGGHTLGAKVSTENVHRWSQFADITGLTPDATLQLSDLVALVRHPQGAFKNVPQGCRRVWFINRFSQCENAIAQSELLQPLQQHDVEAIWLGDIQEHPAIARRFVNLEHHHHHH	not soluble
MSLHYYLGIDCGGTFIKAAIFDQNGTLQSIARRNIPIISEKPGYAERDMDELWNLCAQVIQKTIRQSSILPQQIKAIGISAQGKGAFFLDKDNKPLGRAILSSDQRAYEIVQCWQKENILQKFYPITLQTLWMGHPVSILRWIKENEPSRYEQIHTILMSHDYLRFCLTEKLYCEETNISESNFYNMREGKYDIQLAKLFGITECIDKLPPIIKSNKIAGYVTSRAAEQSGLVEGIPVVGGLFDVVSTALCADLKDDQHLNVVLGTWSVVSGVTHYIDDNQTIPFVYGKYPEKNKFIIHEASPTSAGNLEWFVNQFNLPNYDDINHEIAKLKPASSSVLFAPFLYGSNAKLGMQAGFYGIQSHHTQIHLLQAIYEGVIFSLMSHLERMQVRFPNASTLRVTGGPAKSEVWMQMLADISGMRLEIPNIEETGCLGAALMAMQAESAVEISQILNIDRKIFLPDKNQYSKYQHKYHRYLKFIEALEGHHHHHH	soluble
MSADYPRDLIGYGNNPPHPHWPGDARIALSFVLNYEEGGERCVLHGDKESEAFLSEMVAAQPLQGVRHMSMESLYEYGSRAGVWRLLKLFKRRNVPLTVFAVAMAAQRNPEVIRAMVADGHEICSHGYRWIDYQYMDEAQEREHMLEAIRILTELTGQRPVGWYTGRTGPNTRRLVMEEGGFLYDSDTYDDDLPYWDPASTAEKPHLVIPYTLDTNDMRFTQVQGFNNGEQFFQYLKDAFDVLYEEGATAPKMLSIGLHCRLIGRPARMAALERFIQYAQSHDKVWFARREDIARHWHREHPFQETEA	soluble
MGSDKIHHHHHHMTIDPIKSTTLAQFDAAEQTALAQLALKVQHAFVTGAGGFLGKAICLRLLAAGIKVTGFARGHYPELEALGVVMLQGDLVNKDQLQQAMQGCDIVFHVASKAGVWGDRDSYFCPNVKGAANVIAACKTLKINKLVYTSTPSVTFAGQDESGIDESTPYATSFLNYYAHSKAIAEKMMLDANQVGDVSVENTAVTQVTQVTQATTATISDNNLATTQVAIPNTSQVTAPYALKTVALRPHLIWGPGDPHLVPRVLARCRLDKLKLVGHEDKLVDTIYIDNAAYAHVLAALELCQAKPKCQGKAYFLSNDEPITMAKMLNLILACDALPPVTKRVPQSVAYVAGAVLETVYFLLKKQEEPMMTRFVARQLSCSHYFDISAAKRDLGYRALVSINEGMARLKASL	not soluble
GWQAFKNDATEIIPELGEYPEPPPELENNKTMNRAENGGRPPHHPFETKDVSEYSCRELHFTRYVTDGPCRSAKPVTELVCSGQCGPARLLPNAIGRGKWWRPSGPDFRCIPDRYRAQRVQLLCPGGEAPRARKVRLVASCKCKRLTRFHNQSELKDFGTEAARPQKGRKPRPRARSAKANQAELENAY	soluble
